Measured values taken from publication PMC3679926.

Columns and labels:
[1] = target: T1, p53 (rp53) (UniProt P04637 1-393); assay: EMSA
[2] = target: T1, p53 (rp53); assay: competition

T1 sequence (P04637 whole entry): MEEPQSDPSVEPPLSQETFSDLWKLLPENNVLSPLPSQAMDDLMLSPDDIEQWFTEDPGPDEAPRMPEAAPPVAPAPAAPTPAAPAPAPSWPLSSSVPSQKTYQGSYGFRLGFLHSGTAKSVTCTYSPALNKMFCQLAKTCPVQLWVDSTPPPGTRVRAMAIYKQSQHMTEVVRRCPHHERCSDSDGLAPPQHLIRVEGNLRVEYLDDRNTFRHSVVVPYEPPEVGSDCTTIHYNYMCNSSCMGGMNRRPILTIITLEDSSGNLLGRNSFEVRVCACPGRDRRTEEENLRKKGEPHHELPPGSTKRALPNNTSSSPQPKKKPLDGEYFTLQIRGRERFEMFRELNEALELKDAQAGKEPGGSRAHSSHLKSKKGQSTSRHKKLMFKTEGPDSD

Binder	binding result [1]	binding result [2]
p53RE wt (miR-205 upstream p53BS) (dsDNA) DNA 1: ACTGAGCCATGGGCATGTCTGAACACAACA DNA 2: TGTTGTGTTCAGACATGCCCATGGCTCAGT	binds	–
p53RE MUT (dsDNA) DNA 1: ACTGAGCCATCCCGGCCGGCGAACACAACA DNA 2: TGTTGTGTTCGCCGGCCGGGATGGCTCAGT	no binding	–
p53RE wt, unlabeled competitor (dsDNA) DNA 1: ACTGAGCCATGGGCATGTCTGAACACAACA DNA 2: TGTTGTGTTCAGACATGCCCATGGCTCAGT	–	binds
